From patent US20210163545A1 come the findings set out here.

The target of test [1] is Fab. Put plainly: static binding capacity: Fab incubated with ligand-immobilized porous particles, eluted at pH 2.5, absorbance.
The target in test [2] is Fab. Kind of test: static binding capacity for Fab after 0.1 M NaOH for 24 h, relative to SBC of the same particles without alkali treatment.

Changes are numbered by the printed parent chain.

B1: Recombinant type immunoglobulin κ chain binding protein KBP0 (protein)
chain: KETPETPEEPKEEVTIKVNLIFADGKTQTATFKGTFEEATAEAYRYADLLAKVNGEYTADLEDGGYTINIKFAGKKETPETPEEPKEEVTIKVNLIFADGKTQTATFKGTFEEATAEAYRYADLLAKVNGEYTADLEDGGYTINIKFAGKKETPETPEEPKEEVTIKVNLIFADGKTQTATFKGTFEEATAEAYRYADLLAKVNGEYTADLEDGGYTINIKFAGKKETPETPEEPKEEVTIKVNLIFADGKTQTATFKGTFEEATAEAYRYADLLAKVNGEYTADLEDGGYTINIKFAGK
The molecule B1 showed an SBC without alkali treatment (mg/mL-particles) in the test with Fab [1] of 60. Besides, the SBC retention ratio (%) after alkali treatment in the test with Fab [2] amounted to 39%.

B2: Recombinant immunoglobulin κ chain binding protein KBP2 (protein)
chain: B1 chain with K26R, K101R, K176R, K251R
The molecule B2 gave an SBC without alkali treatment (mg/mL-particles) with Fab [1] of 59. Also, the SBC retention ratio (%) after alkali treatment with Fab [2] was found to be 46%.

B3: Recombinant immunoglobulin κ chain binding protein KBP1 (protein)
chain: B1 chain with K17R, K92R, K167R, K242R
B3 returned an SBC without alkali treatment (mg/mL-particles) in the test with Fab [1] of 56. The SBC retention ratio (%) after alkali treatment with Fab [2] was 46%.

B4: Recombinant immunoglobulin κ chain binding protein KBP5 (protein)
chain: B1 chain with N54Q, N129Q, N204Q, N279Q
For the molecule B4, the SBC without alkali treatment (mg/mL-particles) with Fab [1] is 63. The SBC retention ratio (%) after alkali treatment with Fab [2] worked out at 51%.

B5: Recombinant immunoglobulin κ chain binding protein KBP4 (protein)
chain: B1 chain with Y44F, Y119F, Y194F, Y269F
The molecule B5 registered an SBC without alkali treatment (mg/mL-particles) in the test with Fab [1] of 47. The SBC retention ratio (%) after alkali treatment in the test with Fab [2] amounted to 49%.

B6: Recombinant immunoglobulin κ chain binding protein KBP3 (protein)
chain: B1 chain with T35R, T110R, T185R, T260R
Molecule B6 had an SBC without alkali treatment (mg/mL-particles) with Fab [1] of 58. Besides, in the test with Fab [2], the SBC retention ratio (%) after alkali treatment amounted to 48%.

B7: Recombinant immunoglobulin κ chain binding protein KBP9 (protein, part only; not given: further domain copies and linkers, part only)
chain, part: KETETEEPKEEVTIKVNLIFADGKTQTATFKGTFEEATAEAYRYADLLAKVNGEYTADLEDGGYTINIKFAGK
In the case of B7, the SBC without alkali treatment (mg/mL-particles) with Fab [1] is 60. Also, in the test with Fab [2], the SBC retention ratio (%) after alkali treatment stood at 42%.

B8: Recombinant immunoglobulin κ chain binding protein KBP6 (protein, part only; not given: further domain copies and linkers, part only)
chain, part: KETPETPEEPKEEVTIKVNLIFADGKTQTATFKGTFEEATAEAYRYADLLAKVNAGEYTADLEDGGYTINIKFAGK
B8 returned an SBC without alkali treatment (mg/mL-particles) in the test with Fab [1] of 61. Also, the SBC retention ratio (%) after alkali treatment in the test with Fab [2] was 58%.

B9: Recombinant immunoglobulin κ chain binding protein KBP7 (protein, part only; not given: further domain copies and linkers, part only)
chain, part: B8 chain, part with A55Y
For B9, the SBC without alkali treatment (mg/mL-particles) in the test with Fab [1] came out at 64. In the test with Fab [2], the SBC retention ratio (%) after alkali treatment amounted to 73%.

B10: Recombinant immunoglobulin κ chain binding protein KBP8 (protein, part only; not given: further domain copies and linkers, part only)
chain, part: KETETPEEPKEEVTIKVNLIFADGKTQTATFKGTFEEATAEAYRYADLLAKVNGEYTADLEDGGYTINIKFAGK
For the molecule B10, the SBC without alkali treatment (mg/mL-particles) with Fab [1] was found to be 60. The SBC retention ratio (%) after alkali treatment with Fab [2] was determined as 45%.
